Source: patent publication US20240376226A1 (JANUX THERAPEUTICS, published 2024)

Molecular target: T1, CD3 (UniProt P07766 23-126)
T1 construct: also called CD3-biotin; CD3 biotin
Experiment: ELISA, antibody titrated on captured antigen

T1 sequence (P07766 23-126): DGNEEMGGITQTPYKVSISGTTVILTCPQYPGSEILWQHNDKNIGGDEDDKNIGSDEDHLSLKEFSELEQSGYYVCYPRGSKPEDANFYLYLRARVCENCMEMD

B1: SP34 (Ab-9, Ab-10) (antibody, mouse IgG1, V domains shown)
VH: EVQLVESGGGLVQPKGSLKLSCAASGFTFNTYAMNWVRQAPGKGLEWVARIRSKYNNYATYYADSVKDRFTISRDDSQSILYLQMNNLKTEDTAMYYCVRHGNFGNSYVSWFAYWGQGTLVTVSS
VL: QAVVTQESALTTSPGETVTLTCRSSTGAVTTSNYANWVQEKPDHLFTGLIGGTNKRAPGVPARFSGSLIGDKAALTITGAQTEDEAIYFCALWYSNLWVFGGGTKLTVLQ
notes: used naked or chemically biotinylated; also called SP34-biotin
  EC50: < 1 nM
